Measured values published in PMC5748976 (The Journal of Cell Biology, 2018).

What was measured:
[1] = biological target: recombinant His-tagged Pyk2 (proline-rich tyrosine kinase 2) (UniProt Q14289 1-1009); assay: pull-down
[2] = biological target: recombinant His-tagged FAK (focal adhesion kinase) (UniProt Q05397 1-1052); assay: pull-down
recombinant His-tagged FAK (focal adhesion kinase), sequence (Q05397 whole entry): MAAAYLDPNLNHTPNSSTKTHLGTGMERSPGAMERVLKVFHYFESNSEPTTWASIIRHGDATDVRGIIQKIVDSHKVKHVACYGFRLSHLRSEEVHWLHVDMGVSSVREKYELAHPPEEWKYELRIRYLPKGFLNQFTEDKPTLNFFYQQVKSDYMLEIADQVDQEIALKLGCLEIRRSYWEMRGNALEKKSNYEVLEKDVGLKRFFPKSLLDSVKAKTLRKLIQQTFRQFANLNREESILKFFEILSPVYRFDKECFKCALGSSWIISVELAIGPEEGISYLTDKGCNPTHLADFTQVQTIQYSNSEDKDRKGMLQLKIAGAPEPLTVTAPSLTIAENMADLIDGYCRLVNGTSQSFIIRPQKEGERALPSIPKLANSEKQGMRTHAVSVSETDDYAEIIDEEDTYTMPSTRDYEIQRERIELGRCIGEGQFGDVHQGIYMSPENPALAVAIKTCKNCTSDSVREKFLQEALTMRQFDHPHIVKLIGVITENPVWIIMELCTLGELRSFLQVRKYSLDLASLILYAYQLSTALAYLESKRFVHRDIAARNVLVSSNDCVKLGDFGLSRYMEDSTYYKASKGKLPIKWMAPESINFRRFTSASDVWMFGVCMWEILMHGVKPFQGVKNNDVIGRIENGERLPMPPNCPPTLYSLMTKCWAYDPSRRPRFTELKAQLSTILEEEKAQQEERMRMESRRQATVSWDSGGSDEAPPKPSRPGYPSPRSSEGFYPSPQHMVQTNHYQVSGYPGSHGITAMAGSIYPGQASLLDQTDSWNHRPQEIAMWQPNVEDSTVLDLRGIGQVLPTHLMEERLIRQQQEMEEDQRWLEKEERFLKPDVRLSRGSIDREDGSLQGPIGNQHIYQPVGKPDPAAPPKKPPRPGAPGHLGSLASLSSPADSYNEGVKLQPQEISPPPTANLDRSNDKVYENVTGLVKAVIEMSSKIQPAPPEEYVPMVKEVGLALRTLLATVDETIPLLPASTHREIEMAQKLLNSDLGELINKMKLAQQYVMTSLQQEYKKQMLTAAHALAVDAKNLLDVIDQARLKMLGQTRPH

recombinant His-tagged Pyk2 (proline-rich tyrosine kinase 2), sequence (Q14289 whole entry): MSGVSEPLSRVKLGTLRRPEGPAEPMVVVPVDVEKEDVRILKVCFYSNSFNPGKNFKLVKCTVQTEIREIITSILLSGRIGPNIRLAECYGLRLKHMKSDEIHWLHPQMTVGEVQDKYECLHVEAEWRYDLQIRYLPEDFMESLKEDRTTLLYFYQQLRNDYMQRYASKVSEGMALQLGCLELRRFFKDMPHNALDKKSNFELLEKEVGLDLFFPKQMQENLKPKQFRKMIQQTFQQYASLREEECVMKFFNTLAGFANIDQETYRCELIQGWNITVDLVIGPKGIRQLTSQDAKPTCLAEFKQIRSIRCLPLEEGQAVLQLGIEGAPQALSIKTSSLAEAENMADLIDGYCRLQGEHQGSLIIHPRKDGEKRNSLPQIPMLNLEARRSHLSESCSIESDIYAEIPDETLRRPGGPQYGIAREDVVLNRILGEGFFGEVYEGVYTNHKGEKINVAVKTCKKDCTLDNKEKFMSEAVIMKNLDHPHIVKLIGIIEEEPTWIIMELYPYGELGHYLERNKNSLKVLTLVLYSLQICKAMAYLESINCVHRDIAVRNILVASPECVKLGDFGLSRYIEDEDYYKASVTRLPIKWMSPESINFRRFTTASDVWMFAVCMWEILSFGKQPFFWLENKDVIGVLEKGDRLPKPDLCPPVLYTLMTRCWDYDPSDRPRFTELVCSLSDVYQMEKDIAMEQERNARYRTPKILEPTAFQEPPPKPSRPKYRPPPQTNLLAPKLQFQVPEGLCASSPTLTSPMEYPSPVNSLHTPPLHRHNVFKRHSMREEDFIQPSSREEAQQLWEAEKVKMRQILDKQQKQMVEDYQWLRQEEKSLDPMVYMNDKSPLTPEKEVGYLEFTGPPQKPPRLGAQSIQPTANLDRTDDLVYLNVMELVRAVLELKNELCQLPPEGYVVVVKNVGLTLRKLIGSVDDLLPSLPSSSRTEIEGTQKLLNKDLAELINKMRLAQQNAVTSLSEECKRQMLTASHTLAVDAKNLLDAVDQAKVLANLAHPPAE

- Kd [1]: 490 ± 138 nM
- Kd [2]: 2160 ± 683 nM
B1: recombinant His-tagged cortactin (natural protein)
chain: not shown
